PMC8807725, “EPHA2 mediates PDGFA activity and functions together with PDGFRA as prognostic marker and therapeutic target in glioblastoma” (Signal Transduction and Targeted Therapy, 2022)

Target: T1, recombinant human PDGF-AA (human, UniProt P04085 87-211)
T1 construct: Platelet-derived growth factor subunit A (PDGFA), human, recombinant homodimer PDGF-AA; Added to cells at 100 ng/ml; Commercial PDGF-AA is normally the mature chain; also called recombinant human PDGFA homodimer; source: recombinant human protein
Test: ITC; Microcal iTC200; recombinant human receptor extracellular domain and recombinant human PDGF-AA
Conditions: both partners purified

B1: recombinant human PDGFRA extracellular domain fused with IgG Fc (rhRA-ECD-Fc) (Fc fusion, UniProt P16234 24-528, looked up)
chain: QLSLPSILPNENEKVVQLNSSFSLRCFGESEVSWQYPMSEEESSDVEIRNEENNSGLFVTVLEVSSASAAHTGLYTCYYNHTQTEENELEGRHIYIYVPDPDVAFVPLGMTDYLVIVEDDDSAIIPCRTTDPETPVTLHNSEGVVPASYDSRQGFNGTFTVGPYICEATVKGKKFQTIPFNVYALKATSELDLEMEALKTVYKSGETIVVTCAVFNNEVVDLQWTYPGEVKGKGITMLEEIKVPSIKLVYTLTVPEATVKDSGDYECAARQATREVKEMKKVTISVHEKGFIEIKPTFSQLEAVNLHEVKHFVVEVRAYPPPRISWLKNNLTLIENLTEITTDVEKIQEIRYRSKLKLIRAKEEDSGHYTIVAQNEDAVKSYTFELLTQVPSSILDLVDDHHGSTGGQTVRCTAEGTPLPDIEWMICKDIKKCNNETSWTILANNVSNIITEIHSRDRSTVEGRVTFAKVEETIAVRCLAKNLLGAENRELKLVAPTLRSELTVA
notes: Platelet-derived growth factor receptor alpha (PDGFRA), human, extracellular domain; Species and subclass of the IgG Fc, construct limits and supplier are not in the main text; also called recombinant PDGFRA extracellular domain; source: recombinant human protein
  dH: -1070 ± 117
